US20220411511A1 (STCUBE, published 2022)
Each block holds one binder with its values, some of them ahead of it.

How the values were obtained:
CTLA-4-His [1] = target: T1, CTLA-4-His (human, UniProt P16410 36-161, limits assumed, N-linked glycosylation at N113 and N145 (heavily glycosylated)); test: Octet BLI, antibody loaded on sensor, 1:1 fit
T1 construct: also called antigen CTLA-4-His; not shown: His tag
T1 sequence: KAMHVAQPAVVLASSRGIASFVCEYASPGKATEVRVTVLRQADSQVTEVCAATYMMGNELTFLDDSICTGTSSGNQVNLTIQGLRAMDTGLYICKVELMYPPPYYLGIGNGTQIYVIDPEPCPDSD
Description: KD determination and binning by Octet. […] Baseline was established in PBS containing 1 mg/ml bovine serum albumin (assay buffer), the association step was performed by submerging the sensors in a single concentration of analyte in assay buffer. Dissociation was performed and monitored in fresh assay buffer. All experiments were performed with sensor shaking at 1,000 rpm. ForteBio's data analysis software was used to fit the data to a 1:1 binding model to extract an association rate and dissociation rate. The KD was calculated using the ratio kd/kₐ. In a typical epitope binning assay, antigen CTLA-4-His (10 nM) was preincubated with the second antibody (10 nM) for 1 h at room temperature. Control antibody (20 nM) was loaded onto AMC sensors (ForteBio) and remaining Fc-binding sites on the sensor were blocked with a whole mouse IgG antibody (Jackson ImmunoResearch). The sensors were exposed to preinculated antigen-second antibody mixture. Raw data was processed using ForteBio's Data Analysis Software 7.0 and the antibody pairs were assessed for competitive binding.
The baseline was established in PBS containing 1 mg/mL bovine serum albumin (assay buffer), and the association step was performed by submerging the sensors in a single concentration of analyte in assay buffer. Dissociation was performed and monitored in fresh assay buffer. All experiments were performed with the sensor shaking at 1,000 rotations per minute. ForteBio (Menlo Park, Calif., USA) data analysis software was used to fit the data to a 1:1 binding model to extract an association rate and dissociation rate. KD was calculated using the ratio kd:ka.

[2] = target: T2, CTLA-4 WT expressed on 293T cells (human, UniProt P16410 36-223, N-linked glycosylation at N113 and N145); test: IncuCyte, inhibition of CD86-Fc binding to 293T cells expressing CTLA-4
T2 construct: also called wild type CTLA-4; Flag-tagged CTLA-4 WT
T2 sequence: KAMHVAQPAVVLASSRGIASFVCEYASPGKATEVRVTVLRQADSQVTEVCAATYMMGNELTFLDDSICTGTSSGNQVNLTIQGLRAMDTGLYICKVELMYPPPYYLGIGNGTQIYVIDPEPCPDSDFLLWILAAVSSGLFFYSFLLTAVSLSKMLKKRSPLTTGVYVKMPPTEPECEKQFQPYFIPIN
Description: (§1) The green fluorescent signals were measured every 2 hours and quantified using an IncuCyte Zoom system (Essen BioScience).

[3] = target: T3, CTLA-4 2NQ (non-glycosylated form) expressed in 293T cells (human, UniProt P16410 36-223); test: blot under native condition of 293T cells expressing flag-tagged CTLA-4
T3 construct: also called CTLA-4 2NQ mutant; unglycosylated CTLA-4

[4] = target: T4, CTLA-4 N113Q mutant expressed in 293T cells (human, UniProt P16410 36-223); test: as above
T4 construct: Flag-tagged; single-glycosylated (only N145 can carry a glycan); Tested by Western blot

[5] = target: T5, CTLA-4 N145Q mutant expressed in 293T cells (human, UniProt P16410 36-223); test: as above
T5 construct: Flag-tagged; single-glycosylated (only N113 can carry a glycan); Tested by Western blot

CTLA-4-His [6] = target: T1, CTLA-4-His; test: Biacore X100 SPR, antibody captured on CM5 chip, six concentrations of CTLA4, 1:1 fit
Description: KD determination was performed via surface plasmon resonance using a Biacore X100 instrument (GE Healthcare, Uppsala, Sweden). […] was immobilized on a research-grade CM5 chip using standard procedures, and antibody was flowed over the chip at 2 μg/mL in HBS-EP⁺ buffer. Next, six concentrations of CTLA4, each a 2-fold dilution, were passed over the chip. Sensorgram data were analyzed by Biacore X100 evaluation software version 2.0.1 with 1:1 binding kinetics.

[7] = target: T2, CTLA-4 WT expressed on 293T cells; test: IncuCyte, inhibition of CD86-Fc binding to CTLA-4-expressing cells; human chimera hSTC1807 (FIG. 8B), not the mouse STC1807 of FIG. 7B (2.189 µg/mL)
Description: as §1

- Kd (CTLA-4-His [1]): 1.86 nM
- koff (CTLA-4-His [1]): 0.000499 s⁻¹
- kon (CTLA-4-His [1]): 268000 M⁻¹ s⁻¹
- EC50 [2]: 2.19 µg/mL
- binding result [3]: no binding
- binding result [4]: no binding
- binding result [5]: binds
- Kd (CTLA-4-His [6]): 0.469 nM
- koff (CTLA-4-His [6]): 0.000217 s⁻¹
- kon (CTLA-4-His [6]): 463000 M⁻¹ s⁻¹
B1: anti-glycCTLA-4 monoclonal antibody STC1807 (antibody, V domains shown)
VH: EVQLQQSGAELVRPGALVKLSCKASGFNIKDYYMNWVKQRPEQGLEWIGWIDPENGNTIYDPKFQGKASIIADTSSNTAYLQLSSLTSEDTAVYYCARKWSYTMDYWGQGTSVTVSS
VL: QIVLTQSPALMSASPGEKVTMTCSASSFVGYMYWYQQKPRSSPKPWIYLTSNLASGVPGRFSGSGSGTSYSLTISNMEAEDAATYYCQQWSSNPLTFGAGTKLELK
notes: Mouse hybridoma monoclonal antibody (BALB/c), kappa light chain; also called MAb STC1807

- EC50 [7]: 0.331 µg/mL
B2: human chimera of STC1807 (hSTC1807) (antibody, V domains shown)
VH: B1 VH
VL: QIVLTQSPALMSASPGEKVTMTCSASSFVGYMYWYQQKPRSSPKPWIYLTSNLASGVPGRFSGSGSGTSYSLTISNMEAEDAATYYCQQWSSNPLTFGAGTKLELKR
notes: domain: kappa constant region of pFUSEss-CLIg-hK; Mouse constant regions replaced by human ones; also called human chimera STC1807; chimeric antibody (hSTC1807); not shown: human IgG1 constant region (CH1-CH3) from vector pFUSEss-CHIg-hG1 (Invivogen)
